Assay results taken from patent US20100249029A1 (Novo Nordisk, published 2010).
Where a chain is given by its changes, count along the chain named. Numbers in names are those of the source. One block for each binder: values may come before it.

What was measured:
[1] = target: T1, ECD-PRL-R, soluble extracellular domain of the prolactin receptor, Ser-PRLR(1-210) (human, UniProt P16471 25-234); test: HX-MS, 6 uM vPRL with or without 12 uM ECD-PRL-R
T1 construct: range 1-210
T1 sequence: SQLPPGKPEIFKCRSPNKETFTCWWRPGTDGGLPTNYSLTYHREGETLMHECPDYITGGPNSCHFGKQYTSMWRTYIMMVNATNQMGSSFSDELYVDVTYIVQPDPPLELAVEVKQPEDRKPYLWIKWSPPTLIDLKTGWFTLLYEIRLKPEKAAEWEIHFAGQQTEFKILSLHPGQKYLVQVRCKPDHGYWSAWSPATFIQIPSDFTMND
Procedure: Amide hydrogen/deuterium exchange (HX) was initiated by a 10-fold dilution of vPRL in the presence or absence of ECD-PRL-R into a deuterated buffer (i.e. 20 mM Tris, 150 mM NaCl, 99% D₂O, pH 7.4 (uncorrected value)). Non-deuterated controls were prepared by dilution into an identical protiated buffer. All HX reactions were carried out at 30° C. and contained 6 μM vPRL variant in the absence or presence of 12 μM ECD-PRL-R. At appropriate time intervals, aliquots of the HX reaction were quenched by addition of an equal volume of ice-cold quenching buffer (1.25 M Tris(2-carboxyethyl)phosphine hydrochloride, adjusted to pH 2.0 using NaOH) resulting in a final pH of 2.5 (uncorrected value). Quenched samples were immediately frozen in liquid N₂ and stored at −80° C.
The samples were run on a cooled high pressure liquid chromatography-mass spectrometry system for rapid desalting and mass analysis as described (Rand et al. J. Biol. Chem. 281, 23018 (2006)).

[2] = target: T2, Biotinylated prolactin receptor BirATag-Ser-PRLR (1-210) (human, UniProt P16471 25-234, biotinylated (BirA tag, biotin added during expression in E. coli)); test: SPR (Biacore); biotinylated BirATag-Ser-PRLR (1-210) amine-coupled to CM5 chip, variant injected at 3.13-50 nM; STDEV 0.035
T2 construct: range 1-210; also called BirA-Ser-PRLR (1-210); not shown: BirA tag (biotin acceptor tag)
T2 sequence: T1 sequence
Procedure: (§1) Biotinylated prolactin receptor BirATag-Ser-PRLR (1-210) was diluted to 20 μg/ml in 10 mM sodium acetate pH 4.0 (Biacore BR-1003-49) and immobilized on a CM5 chip (Biacore BR-1006-68) with the immobilization reagents 1-ethyl-3-(3-dimethylaminopropyl) carbodiimide hydrochloride (EDC), N-hydroxysuccinimide (NHS) and 1.0 M ethanolamine-HCl pH 8.5 (Biacore BR1000-50). The immobilization level was 1500 RU. The PRL variants prepared as described in Example 5 were diluted to a series of concentrations as following: 3.13/6.25/12.5/25/50 nM and run through the PRLR immobilized chip using HBS-EP (10 mM HEPES pH 7.4; 150 mM NaCl; 3 mM EDTA; 0.005% v/v Tween-20) as the running buffer under the following conditions: […]

[3] = target: T2, Biotinylated prolactin receptor …; test: SPR (Biacore); biotinylated BirATag-Ser-PRLR (1-210) amine-coupled to CM5 chip, variant injected at 3.13-50 nM; STDEV 0.000
Procedure: as §1

[4] = target: T2, Biotinylated prolactin receptor …; test: SPR (Biacore); biotinylated BirATag-Ser-PRLR (1-210) amine-coupled to CM5 chip, variant injected at 3.13-50 nM; STDEV 0.021
Procedure: as §1

[5] = target: T2, Biotinylated prolactin receptor …; test: SPR (Biacore); biotinylated BirATag-Ser-PRLR (1-210) amine-coupled to CM5 chip, variant injected at 3.13-50 nM; STDEV 0.2546
Procedure: as §1

[6] = target: T2, Biotinylated prolactin receptor …; test: SPR (Biacore); biotinylated BirATag-Ser-PRLR (1-210) amine-coupled to CM5 chip, variant injected at 3.13-50 nM; STDEV 0.3606
Procedure: as §1

[7] = target: T2, Biotinylated prolactin receptor …; test: SPR (Biacore); biotinylated BirATag-Ser-PRLR (1-210) amine-coupled to CM5 chip, variant injected at 3.13-50 nM; STDEV 0.064
Procedure: as §1

[8] = target: T2, Biotinylated prolactin receptor …; test: SPR (Biacore); biotinylated BirATag-Ser-PRLR (1-210) amine-coupled to CM5 chip, variant injected at 3.13-50 nM; STDEV 0.18
Procedure: as §1

[9] = target: T2, Biotinylated prolactin receptor …; test: SPR (Biacore); biotinylated BirATag-Ser-PRLR (1-210) amine-coupled to CM5 chip, variant injected at 3.13-50 nM; STDEV 0.11
Procedure: as §1

[10] = target: T2, Biotinylated prolactin receptor …; test: SPR (Biacore); biotinylated BirATag-Ser-PRLR (1-210) amine-coupled to CM5 chip, variant injected at 3.13-50 nM; STDEV 0.44
Procedure: as §1

[11] = target: T2, Biotinylated prolactin receptor …; test: SPR (Biacore); biotinylated BirATag-Ser-PRLR (1-210) amine-coupled to CM5 chip, variant injected at 3.13-50 nM; STDEV 0.0636
Procedure: as §1

[12] = target: T2, Biotinylated prolactin receptor …; test: SPR (Biacore); biotinylated BirATag-Ser-PRLR (1-210) amine-coupled to CM5 chip, variant injected at 3.13-50 nM; STDEV 0.1273
Procedure: as §1

[13] = target: T2, Biotinylated prolactin receptor …; test: SPR (Biacore); biotinylated BirATag-Ser-PRLR (1-210) amine-coupled to CM5 chip, variant injected at 3.13-50 nM; STDEV 0.049
Procedure: as §1

[14] = target: T2, Biotinylated prolactin receptor …; test: SPR (Biacore); biotinylated BirATag-Ser-PRLR (1-210) amine-coupled to CM5 chip, variant injected at 3.13-50 nM; STDEV 0.092
Procedure: as §1

[15] = target: T2, Biotinylated prolactin receptor …; test: SPR (Biacore); biotinylated BirATag-Ser-PRLR (1-210) amine-coupled to CM5 chip, variant injected at 3.13-50 nM; STDEV 0.085
Procedure: as §1

[16] = target: T2, Biotinylated prolactin receptor …; test: SPR (Biacore); biotinylated BirATag-Ser-PRLR (1-210) amine-coupled to CM5 chip, variant injected at 3.13-50 nM; STDEV 0.057
Procedure: as §1

- binding result [1]: binds
B1: vPRL: variant of PRL with amino acid residues 1-11 deleted and the mutations Q12S and G129R (ligand)
chain: SVTLRDLFDRAVVLSHYIHNLSSEMFSEFDKRYTHGRGFITKAINSCHTSSLATPEDKEQAQQMNQKDFLSLIVSILRSWNEPLYHLVTEVRGMQEAPEAILSKAVEIEEQTKRLLERMELIVSQVHPETKENEIYPVWSGLPSLQMADEESRLSAYYNLLHCLRRDSHKIDNYLKLLKCRIIHNNNC

- Kd [2]: 1.7 nM
B2: PRL S61A, D68N, G71A, Q73A, G129R, K190R (ligand)
chain: LPICPGGAARCQVTLRDLFDRAVVLSHYIHNLSSEMFSEFDKRYTHGRGFITKAINSCHTASLATPENKEAAAQMNQKDFLSLIVSILRSWNEPLYHLVTEVRGMQEAPEAILSKAVEIEEQTKRLLERMELIVSQVHPETKENEIYPVWSGLPSLQMADEESRLSAYYNLLHCLRRDSHKIDNYLKLLRCRIIHNNNC
notes: Printed without the prefix Ser-. 'G71A' is copied as printed

- Kd [3]: 1.4 nM
B3: PRL S61A, D68N, G129R, K190R (ligand)
chain: B2 chain with A71Q, A73Q
notes: Printed without the prefix Ser-; No. 23 carries the same substitutions with Ser-

- Kd [4]: 1.2 nM
B4: Ser-PRL D68N, E70K, Q73L, G129R, K190R (ligand)
chain: SLPICPGGAARCQVTLRDLFDRAVVLSHYIHNLSSEMFSEFDKRYTHGRGFITKAINSCHTSSLATPENKKQALQMNQKDFLSLIVSILRSWNEPLYHLVTEVRGMQEAPEAILSKAVEIEEQTKRLLERMELIVSQVHPETKENEIYPVWSGLPSLQMADEESRLSAYYNLLHCLRRDSHKIDNYLKLLRCRIIHNNNC

- Kd [5]: 2.7 nM
B5: Ser-PRL N31E, G129R, K190R (ligand)
chain: B4 chain with N32E, N69D, K71E, L74Q

- Kd [6]: 2.01 nM
B6: Ser-PRL N31R, G129R, K190R (ligand)
chain: B4 chain with N32R, N69D, K71E, L74Q

- Kd [7]: 5 nM
B7: Ser-PRL S33A Q73L G129R K190R (ligand)
chain: B4 chain with S34A, N69D, K71E

- Kd [8]: 2.8 nM
B8: Ser-PRL S38I, D68N, G129R, I182V (ligand)
chain: B4 chain with S39I, K71E, L74Q, I183V, R191K

- Kd [9]: 5.1 nM
B9: Ser-PRL G129R, K190R (ligand)
chain: B4 chain with N69D, K71E, L74Q

- Kd [10]: 3.8 nM
B10: Ser-PRL S33A, Q73L, G129R, K190R, I194V, H195Y, N196R, N197D (ligand)
chain: B4 chain with S34A, N69D, K71E, I195V, H196Y, N197R, N198D

- Kd [11]: 0.3 nM
B11: Ser-PRL S38I, S61A, D68N, Q73L, G129R, K190R (ligand)
chain: B4 chain with S39I, S62A, K71E

- Kd [12]: 2.3 nM
B12: Ser-PRL S61A, D68N, G129R, K190R (ligand)
chain: B4 chain with S62A, K71E, L74Q

- Kd [13]: 1.3 nM
B13: Ser-PRL S61A, Q73L, G129R, K190R (ligand)
chain: B4 chain with S62A, N69D, K71E

- Kd [14]: 2.6 nM
B14: Ser-PRL K42R, Q73L, G129R, K190R (ligand)
chain: B4 chain with K43R, N69D, K71E

- Kd [15]: 1.1 nM
B15: Ser-PRL S61A, D68N, Q73L, G129R, K190R (ligand)
chain: B4 chain with S62A, K71E

- Kd [16]: 1.2 nM
B16: Ser-PRL D68N, Q73L, G129R, K190R (ligand)
chain: B4 chain with K71E
